The target in experiment [1] is PulD (Klebsiella pneumoniae HS11286) (UniProt P15644). Put plainly: cryo-EM structure; outer membrane complex of the co-expressed and co-purified Pul_CDELMNS complex on thin carbon film; focused refinement, C15 symmetry, 4.3 Å overall; PulC HR domain (7-8 Å) and PulS (~7 Å) as rigid-body fitted homology models; top views from a purification without glutaraldehyde.
In experiment [2] the target is T1, PulE with C-terminal StrepII tag (Klebsiella pneumoniae HS11286, UniProt A0A0H3GRZ5 1-497).
T1 construct: PulE ATPase of the Klebsiella pneumoniae HS11286 type II secretion system; N1E, N2E and CTE domains; also called PulE ATPase; GspE; source: E. coli C43 (DE3) with pspA knockout, co-expressed (from the pul operon in pASK3c, or full-length pulE alone in pASK3c); DDM-solubilised membranes; purified as part of a complex (StrepTrap, Flag resin); not shown: StrepII, C-terminal, kept
T1 sequence: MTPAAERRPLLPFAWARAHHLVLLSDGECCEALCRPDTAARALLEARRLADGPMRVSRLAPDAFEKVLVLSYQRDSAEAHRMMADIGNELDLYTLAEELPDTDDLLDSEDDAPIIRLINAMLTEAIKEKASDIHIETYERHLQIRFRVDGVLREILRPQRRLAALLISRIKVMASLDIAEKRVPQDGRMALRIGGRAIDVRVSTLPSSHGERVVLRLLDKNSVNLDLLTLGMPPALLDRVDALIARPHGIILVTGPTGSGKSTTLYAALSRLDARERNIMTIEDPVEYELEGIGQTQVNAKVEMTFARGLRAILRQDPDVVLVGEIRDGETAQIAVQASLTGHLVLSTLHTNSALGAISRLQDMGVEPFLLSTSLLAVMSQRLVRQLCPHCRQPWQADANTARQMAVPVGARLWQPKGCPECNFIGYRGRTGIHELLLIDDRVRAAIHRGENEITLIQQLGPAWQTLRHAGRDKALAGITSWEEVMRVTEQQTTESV
The experiment in a line: SDS-PAGE densitometry of the co-purified complex; Pul_CDELMNS co-expressed and co-purified without glutaraldehyde, phenol extracted; fluorescent emission of Coomassie R250 and Sypro Ruby stained gels; six independent purifications; ratios standardised around PulE. The conditions noted are these: both partners purified.

Experiment [3] addresses T2, PulE N1E domain (aa 1-108) with C-terminal StrepII tag (Klebsiella pneumoniae HS11286, UniProt A0A0H3GRZ5 1-108).
T2 construct: N1E domain of PulE, Klebsiella pneumoniae HS11286, aa 1-108; source: E. coli, co-expressed with Pul_(Lcyto) (pASK3c); not shown: StrepII, C-terminal, kept
T2 sequence: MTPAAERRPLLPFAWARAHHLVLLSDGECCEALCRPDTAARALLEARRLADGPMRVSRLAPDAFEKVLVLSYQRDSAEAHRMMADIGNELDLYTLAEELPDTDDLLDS
Put plainly: SDS-PAGE densitometry of the co-purified complex; Pul_(E-N1E/Lcyto) complex, two independent purifications, duplicate gels, Coomassie Blue R250 imaged at 680 nm. The conditions noted are these: both partners purified.

What is called stoichiometry N is a count of units in the complex or per binding partner.

For “PulS with C-terminal Flag tag (from UniProt P20440 18-125) (natural protein)”, the stoichiometry N in experiment [1] was 1.

Consider “PulD (from UniProt P15644 28-660) (natural protein)”, for which the stoichiometry N in experiment [1] was found to be 15.

B1: PulM (natural protein)
chain: MANLLIWWRQRTPSEQRLLLGLTGLLAACAFWYGLWQPWRAREAQWRQTLVKEQASLRWMTEQAPRLQQLSQQPAPAAKEALTALVMREAASHGLTVIRLQPQGKRLQITLQPCAFQALIDWLDAPAMRGVNAISLSVTGQPSRPGWVTVNHLLLERDDEG
notes: PulM of the Klebsiella pneumoniae HS11286 type II secretion system; whole gene as part of the cloned operon; also called GspM; source: DDM-solubilised membranes; purified as part of a complex
As for B1, the “stoichiometry N” value in experiment [2] is 0.99 relative to PulE.

B2: PulL cytoplasmic domain (aa 1-235) with C-terminal Flag tag (domain or fragment)
chain: MNKINASPQAMLIVRLAAAQAPLHWQLFAPGEPHHEASGRWPTDDASPFPALAEQYPAWVLIPASDCAFHSLNLPAGLRKPPLQVAPFLLEEQLADDVEATHFALLHRQQAQCEIVAVQRQKMRDWLARCESLSLQPLALTPDVLALPWQPPAWSAVQVDEQWLIRHQPWGGMAAENVWLTELLQSEAEEHVIDSYSPPPAAPGVWREQPAQTLLTLAARHPAAQKLSLLQGEFA
notes: cytoplasmic domain of PulL, Klebsiella pneumoniae HS11286, aa 1-235; source: E. coli, co-expressed (pCDF-duet); not shown: Flag, C-terminal, kept
With B2, in experiment [3], the “stoichiometry N” value was 1.

B3: PulL (natural protein)
chain: MNKINASPQAMLIVRLAAAQAPLHWQLFAPGEPHHEASGRWPTDDASPFPALAEQYPAWVLIPASDCAFHSLNLPAGLRKPPLQVAPFLLEEQLADDVEATHFALLHRQQAQCEIVAVQRQKMRDWLARCESLSLQPLALTPDVLALPWQPPAWSAVQVDEQWLIRHQPWGGMAAENVWLTELLQSEAEEHVIDSYSPPPAAPGVWREQPAQTLLTLAARHPAAQKLSLLQGEFAVRRRSAQASWRPARYAALALALLAGANSVLDHRDLARQAEAAQQASRAFYHRWFPTEKKVINPRLQMQQHLQTLTRQAQHAPLVDRLSALQNILSETPGIRLRALSWDAAGNRLQLDIAAVTSRALEQFTQRAQPRFRVRPGDMITKPDGIEGQLTLEENDG
notes: PulL of the Klebsiella pneumoniae HS11286 type II secretion system; bitopic inner membrane protein with a cytoplasmic domain (aa 1-235) and a periplasmic domain; a tag may have been present there; also called GspL; source: DDM-solubilised membranes; purified as part of a complex
B3: the “stoichiometry N” value in experiment [2] is 0.97 relative to PulE.

B4: PulC (natural protein)
chain: MPVSVMRLTNINKGIIKLLPQIVTLIILITAIPQLAKLTWRVVFPVSPEDISALPLTMPPAADPELKNVRPAFTLFGLAVKNSPTPTDAASLNQVPVSSLKLRLAGLLASSNPARSIAIIEKGNQQVSLSTGDPLPGYDARIAAILPDRIIVNYQGRKEAILLFNDSRAPSPPPTAAGNPPLVKRLREQPQNILTYLSISPVLSGDKLLGYRLNPGKDASLFRQSGLQANDLAIALNGIDLRDQEQAQQALQNLADMTEITLTVEREGQRHDIAFALGDE
notes: whole gene as part of the cloned operon pulC to pulO; has an N-terminus in the inner membrane, an HR domain and a PDZ domain; Only the HR domain (homology model) is fitted in the outer membrane complex map; also called GspC; source: E. coli C43 (DE3) with pspA knockout, co-expressed from the pul operon (pASK3c); DDM-solubilised membranes; purified as part of the complex (StrepTrap, Flag resin)
On to B4, for which, in experiment [2], the “stoichiometry N” value was 2.13 relative to PulE.

B5: PulN (natural protein)
chain: MKANWIAGGLLLVLYLLWLTATAPARLLAPMLPPGVQVGQFSGSVWRGAAQPVYWHGERLERLAWSLTLAGWQVSLSDPRGVMGQARLWGLRDLRLQEGRLTAPASLLSRWLMSTMPVKAAGEVTFSLTEGRFSDGRCRHIIAGGAQWRQARLHSPVGSLELAQVNGTFRCTVDGAVALTLRQDSHQLSLSGQGTLSPDGRYLFRGTLQPRQGMPPLLALLVTRPTANNAPGPTPWQLQGKWLPQEQK
notes: PulN of the Klebsiella pneumoniae HS11286 type II secretion system; whole gene as part of the cloned operon pulC to pulO; source: E. coli C43 (DE3) with pspA knockout, co-expressed from the pul operon (pASK3c); DDM-solubilised membranes; purified as part of the complex (StrepTrap, Flag resin)
Take B5: the “stoichiometry N” value in experiment [2] is 0.95 relative to PulE.

(Values after paper PMC6882859, “Core architecture of a bacterial type II secretion system” (Nature Communications, 2019).)
